Experimental findings from patent publication US20220162314A1 (ASHER BIOTHERAPEUTICS, published 2022) are described below.

Assay [1] addresses T1, Recombinant human CD8ab protein (extracellular domains of CD8a and CD8b with leucine zippers and tags) (human, UniProt P01732 22-182; P10966 22-170).
T1 construct: extracellular domain; Secreted from HEK293 cells; also called recombinant CD8ab; soluble CD8ab antigen; not shown: acidic leucine zipper; 8x Histidine tag; basic leucine zipper; Strep-tag II
Briefly: SPR as in Example 1 (antibody captured, soluble CD8ab as analyte). The protocol:
(§1) Recombinant human CD8ab protein was generated. […] Antibodies were first captured on an anti-hJgG-Fc CM5 or CM4 surface prepared using the Human Antibody Capture Kit (Cytiva). […] Dissociation was monitored for 5-10 minutes, and the anti-hJgG-Fc surface was regenerated with 3M MgCl2 before recapturing mAb in each subsequent cycle. Binding data were analyzed by Biacore T200 Evaluation Software version 3.2 using a 1:1 binding model.

The target in assay [2] is T2, Recombinant CD8b (Sino biological) (human, UniProt P10966 22-170, limits assumed).
T2 construct: also called CD8b alone
T2 sequence (P10966 22-170 limits assumed): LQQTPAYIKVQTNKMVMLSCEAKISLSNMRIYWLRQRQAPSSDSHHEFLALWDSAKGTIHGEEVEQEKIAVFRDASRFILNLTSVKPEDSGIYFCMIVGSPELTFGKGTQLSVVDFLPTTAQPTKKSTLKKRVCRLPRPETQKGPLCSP
Kind of assay: ELISA, coated recombinant CD8b. The protocol: (§2) Binding specificity of the antibodies was determined by ELISA. […] of recombinant CD8ab, CD8a (Sino biological), CD8b (Sino biological) and ovalbumin (Sigma) or Erb2 (human epidermal growth factor receptor 2) (Sino biological) in PBS were coated onto the maxisorp plate overnight at 4° C. Ovalbumin or Erb2 was used as negative control. Plate was then blocked with casein blocking solution (Thermo Scientific) for 1 hr at room temperature. After blocking, plate was washed with wash buffer (PBS/0.05% Tween-20). Next, dilution of antibody from 30 nM to 0.0009 nM in PBS/0.5% BSA/0.05% Tween-20 was added onto the plate and incubated for 1-2 hr at room temperature. After incubation, plate was washed, and incubated with anti-human IgG (Fc specific)-HRP conjugate or anti-mouse IgG (Fc specific)-HRP conjugate (Jackson Immunoresearch) in PBS/0.5% BSA/0.05% Tween-20 for 1 hr. Binding was detected by adding TMB substrate (SeraCare) to the plate, followed by stopping solution of 0.1M HCl. Binding absorbance was read using GloMax® Discover Microplate Reader (Promega).

In assay [3] the target is T3, Recombinant CD8a (Sino biological) (human, UniProt P01732 22-182).
T3 construct: also called CD8a alone
T3 sequence (P01732 22-182 limits assumed): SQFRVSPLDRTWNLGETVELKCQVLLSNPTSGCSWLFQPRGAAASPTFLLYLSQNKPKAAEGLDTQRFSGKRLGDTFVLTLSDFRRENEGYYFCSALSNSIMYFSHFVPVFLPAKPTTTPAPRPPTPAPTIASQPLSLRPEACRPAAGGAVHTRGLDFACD
Briefly: ELISA, coated recombinant CD8a, antibody 30 nM to 0.0009 nM. How it is done:
as §2

The target of assay [4] is T3, Recombinant CD8a (Sino biological). Kind of assay: ELISA: antigen coated on the plate, antibody titrated, anti-IgG (Fc)-HRP and TMB, A450. The protocol:
as §2

In assay [5] the target is T2, Recombinant CD8b (Sino biological). Described as above. How it is done:
as §2

For assay [6], the target named is T1, Recombinant human CD8ab protein …. The assay is described as above. The protocol:
as §2

The target is the same in assay [7]. Briefly: SPR (Biacore T200, 37 C), antibody captured by anti-human IgG Fc, soluble CD8ab as analyte, 1:1 model. How it is done:
as §1

T1 sequence (P01732 22-182, chain 1 of 2): as the sequence (P01732 22-182 limits assumed) above
T1 sequence (P10966 22-170, chain 2 of 2): as the sequence (P10966 22-170 limits assumed) above

B1: xhCD8v10 (antibody, human IgG1, V domains shown)
VH: EVQLVESGGGLVQPGGSLRLSCAASGFTFSSYAMSWVRQAPGKGLEWVSDITYAGGSTAYADSVKGRFTISRDNAKNSLYLQMNSLRAEDTAVYYCARSNAYAWDDALDIWGQGTMVTVSS
VL: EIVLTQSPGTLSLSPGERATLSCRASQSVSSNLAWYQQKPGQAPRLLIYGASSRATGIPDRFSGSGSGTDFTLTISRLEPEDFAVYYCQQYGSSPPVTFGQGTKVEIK
notes: Improved version based on xhCD8v6
Consider B1, for which, in assay [1], the dissociation constant Kd is 36.4 nM, the koff was 0.00386 s⁻¹ and the kon amounted to 106000 M⁻¹ s⁻¹.

B2: xhCD8v11 (antibody, human IgG1, V domains shown)
VH: EVQLVESGGGLVQPGGSLRLSCAASGFTFSSYAMSWVRQAPGKGLEWVSDITYAGGSTAYADSVKGRFTISRDNAKNSLYLQMNSLRAEDTAVYYCARSNAYAWDDALDIWGQGTLVTVSS
VL: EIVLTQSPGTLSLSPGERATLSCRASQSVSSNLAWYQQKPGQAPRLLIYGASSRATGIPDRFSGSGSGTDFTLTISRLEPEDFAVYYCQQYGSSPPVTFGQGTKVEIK
notes: as for B1
On to B2, for which, in assay [1], the Kd came to 37.8 nM, the koff was found to be 0.00361 s⁻¹ and the association rate constant (kon) is 95500 M⁻¹ s⁻¹.

B3: xhCD8v14 (antibody, human IgG1, V domains shown)
VH: EVQLVESGGGLVQPGGSLRLSCAASGFTFSSYAMSWVRQAPGKGLEWVSDISYAGGSTAYADSVKGRFTISRDNAKNSLYLQMNSLRAEDTAVYYCARSNAYAWDDALDIWGQGTMVTVSS
VL: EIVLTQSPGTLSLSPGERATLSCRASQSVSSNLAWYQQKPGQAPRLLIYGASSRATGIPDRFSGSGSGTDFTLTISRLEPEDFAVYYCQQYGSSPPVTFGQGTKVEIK
notes: as for B1
Consider B3, for which, in assay [1], the Kd is 52.9 nM, the koff is 0.00855 s⁻¹ and the kon worked out at 162000 M⁻¹ s⁻¹.

B4: xhCD8v15 (antibody, human IgG1, V domains shown)
VH: EVQLVESGGGLVQPGGSLRLSCAASGFTFSSYAMSWVRQAPGKGLEWVSDISYAGGSTAYADSVKGRFTISRDNAKNSLYLQMNSLRAEDTAVYYCARSNAYAWDDALDIWGQGTLVTVSS
VL: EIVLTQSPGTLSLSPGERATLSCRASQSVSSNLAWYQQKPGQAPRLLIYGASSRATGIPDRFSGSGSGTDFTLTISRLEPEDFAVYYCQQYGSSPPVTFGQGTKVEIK
notes: as for B1
As to B4, in assay [1], the Kd was 94.3 nM, the koff turned out to be 0.0175 s⁻¹ and the on-rate constant (kon) came out at 186000 M⁻¹ s⁻¹.

B5: xhCD8v13 (antibody, human IgG1, V domains shown)
VH: QVQLVQSGAEVKKPGSSVKVSCKASGGTFSSYAISWVRQAPGQGLEWMGGIIPGYATANYAQKFQGRVTITADESTSTAYMELSSLRSEDTAVYYCARDAAGIRLFADWGQGTLVTVSS
VL: DIQMTQSPSSLSASVGDRVTITCRASQEIYGALNWYQQKPGKAPKLLIYGATNLQSGVPSRFSGSGSGTDFTLTISSLQPEDFATYYCQSTYDAPWTFGGGTKVEIK
notes: Improved version based on xhCD8v2
Take B5: the binding result in assay [2] is recorded as “binds”. Besides, the binding result in assay [3] is on record as “no binding (tested: 30 nM)”. In assay [1], the equilibrium dissociation constant (Kd) amounted to 81.8 nM, the koff is 0.0301 s⁻¹ and the kon worked out at 368000 M⁻¹ s⁻¹.

B6: xhCD8v12 (antibody, human IgG1, V domains shown)
VH: QVQLVQSGAEVKKPGSSVKVSCKASGGTFSSYAISWVRQAPGQGLEWMGGIIPGYATANYAQKFQGRVTITADESTSTAYMELSSLRSEDTAVYYCARDAAGIRLFADWGQGTLVTVSS
VL: DIQMTQSPSSLSASVGDRVTITCRASQSIYGALNWYQQKPGKAPKLLIYGASNLQSGVPSRFSGSGSGTDFTLTISSLQPEDFATYYCQSTYTAPWTFGGGTKVEIK
notes: as for B5
Regarding B6, in assay [1], the Kd amounted to 105 nM, the koff came out at 0.0271 s⁻¹ and the association rate constant (kon) worked out at 259000 M⁻¹ s⁻¹. Moreover, in assay [4], the binding result is “no binding (tested: 30 nM)”. Also, in assay [5], the concentration giving a half-maximal response (EC50 (read off the curve)) was about 0.05 nM. Moreover, the half-maximal effective concentration (EC50 (read off the curve)) in assay [6] is about 0.02 nM.

B7: xhCD8v3 (antibody, human IgG1, V domains shown)
VH: QVQLVQSGAEVKKPGSSVKVSCKASGSRFYKFAISWVRQAPGQGLEWMGGIIPGHAKANYAQKFQGRVTITADESTSTAYMELSSLRSEDTAVYYCARDGLGIRLFADWGQGTLVTVSS
VL: DIQMTQSPSSLSASVGDRVTITCRASQEIYGALNWYQQKPGKAPKLLIYGATNLQSGVPSRFSGSGSGTDFTLTISSLQPEDFATYYCQDIYDAPWTFGGGTKVEIK
On to B7, for which the binding result in assay [2] is on record as “binds”. Moreover, the binding result in assay [3] is on record as “no binding (tested: 30 nM)”. In assay [7], the equilibrium dissociation constant (Kd) is 72.3 nM, the dissociation rate constant (koff) was found to be 0.0379 s⁻¹ and the kon is 524000 M⁻¹ s⁻¹.

B8: xhCD8v2 (antibody, human IgG1, V domains shown)
VH: QVQLVQSGAEVKKPGSSVKVSCKASGYRFHNFAISWVRQAPGQGLEWMGGIIPGHAKANYAQKFQGRVTITADESTSTAYMELSSLRSEDTAVYYCARDGLGIRLFADWGQGTLVTVSS
VL: DIQMTQSPSSLSASVGDRVTITCRASQEIYGALNWYQQKPGKAPKLLIYGATNLQSGVPSRFSGSGSGTDFTLTISSLQPEDFATYYCQDIYDAPWTFGGGTKVEIK
On to B8, for which, in assay [7], the Kd is 41.6 nM, the off-rate (koff) came out at 0.02 s⁻¹ and the kon was found to be 483000 M⁻¹ s⁻¹. Besides, the binding result in assay [4] is “no binding (tested: 30 nM)”. Further, in assay [5], the concentration giving a half-maximal response (EC50 (read off the curve)) was about 0.06 nM. In assay [6], the 50% effective concentration (EC50 (read off the curve)) is about 0.03 nM.

B9: xhCD8v4 (antibody, human IgG1, V domains shown)
VH: QVQLVQSGAEVKKPGSSVKVSCKASGYTFTKYAISWVRQAPGQGLEWMGGIIPGHAKANYAQKFQGRVTITADESTSTAYMELSSLRSEDTAVYYCARDGLGIRLFADWGQGTLVTVSS
VL: DIQMTQSPSSLSASVGDRVTITCRASQKIYGALNWYQQKPGKAPKLLIYGATNLQSGVPSRFSGSGSGTDFTLTISSLQPEDFATYYCQNTYDTPWTFGGGTKVEIK
Turning to B9, the binding result in assay [2] was “binds”. The binding result in assay [3] is given as “no binding (tested: 30 nM)”. In assay [7], the equilibrium dissociation constant (Kd) was 137 nM, the koff is 0.0493 s⁻¹ and the on-rate (kon) was found to be 360000 M⁻¹ s⁻¹.

B10: xhCD8v9 (antibody, human IgG1, V domains shown)
VH: QVQLVQSGAEVKKPGSSVKVSCKASGGTFSSYAISWVRQAPGQGLEWMGGIIPGAATANYAQKFQGRVTITADESTSTAYMELSSLRSEDTAVYYCARDAAGIRLFADWGQGTLVTVSS
VL: DIQMTQSPSSLSASVGDRVTITCRASQEIYGALNWYQQKPGKAPKLLIYGATNLQSGVPSRFSGSGSGTDFTLTISSLQPEDFATYYCQSTYDAPWTFGGGTKVEIK
notes: as for B5
With B10, in assay [2], the binding result is “binds”. For the same molecule, the binding result in assay [3] is recorded as “no binding (tested: 30 nM)”. In addition, in assay [1], the Kd amounted to 121 nM, the koff is 0.0273 s⁻¹ and the on-rate (kon) was 225000 M⁻¹ s⁻¹.

B11: xhCD8v5 (antibody, human IgG1, V domains shown)
VH: QVQLVQSGAEVKKPGSSVKVSCKASGSGFRGHAISWVRQAPGQGLEWMGGIIPGHAKANYAQKFQGRVTITADESTSTAYMELSSLRSEDTAVYYCARDGLGIRLFADWGQGTLVTVSS
VL: DIQMTQSPSSLSASVGDRVTITCRASQKIYGALNWYQQKPGKAPKLLIYGATNLQSGVPSRFSGSGSGTDFTLTISSLQPEDFATYYCQNTYDTPWTFGGGTKVEIK
For B11, the binding result in assay [2] was “binds”. Further, the binding result in assay [3] is “no binding (tested: 30 nM)”. Also, in assay [7], the dissociation constant Kd amounted to 117 nM, the koff came out at 0.0419 s⁻¹ and the kon stood at 357000 M⁻¹ s⁻¹.
